One experiment concerns the target T1, human LEPR Ig (D3)-MMH (human, UniProt P48357 340-427, limits assumed).
T1 construct: domain: Ig (D3)
T1 sequence (looked up): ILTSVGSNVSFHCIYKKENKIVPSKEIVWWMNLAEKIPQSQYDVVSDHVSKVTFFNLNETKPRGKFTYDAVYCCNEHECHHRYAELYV
The experiment in a line: Luminex, myc-captured protein on beads. The procedure:
(§1) Aliquots of microspheres with immobilized anti-myc monoclonal antibodies, prepared as described above, were added individually to 1 mL of the each of these protein supernatants. The microspheres were gently mixed, incubated for two hours at 25° C., washed twice with 1 mL of DBPS, centrifuged to remove the supernatant and finally resuspended in 1 mL of DPBS buffer. […] of anti-myc IgG coupled microspheres from individual reactions with full length human LEPR and with each of the human LEPR domain proteins were withdrawn and mixed together in 3.6 mL of PBS+20 mg/mL BSA+0.05% sodium azide (blocking buffer).
(§2) From this mixed pool, 75 μL of microspheres were plated per well on a 96 well filter plate (Millipore, Cat. No: MSBVN1250) and mixed with 25 μL of individual anti-human LEPR monoclonal antibodies (0.5 or 5 μg/mL), incubated for two hours at 25° C. and then washed twice with 200 μL of DPBS with 0.05% Tween 20 (washing buffer). […] After 30 minutes, the samples were washed twice with 200 µL of washing buffer and resuspended in 150 μL of wash buffer. The Median Fluorescence intensity (MFI) of the microspheres was measured in a Luminex Analyzer.

Experiment [1] addresses T2, human LEPR CRH1-Ig (D2,D3)-MMH (human, UniProt P48357 230-427, limits assumed).
T2 construct: domain: CRH1-Ig (D2,D3)
T2 sequence (looked up): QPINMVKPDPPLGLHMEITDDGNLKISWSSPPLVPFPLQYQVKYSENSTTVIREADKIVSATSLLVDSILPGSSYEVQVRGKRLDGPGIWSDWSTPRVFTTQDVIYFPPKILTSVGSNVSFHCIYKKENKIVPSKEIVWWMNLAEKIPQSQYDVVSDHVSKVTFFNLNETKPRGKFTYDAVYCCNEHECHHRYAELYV
The experiment is described as follows: Luminex, myc-captured protein on beads. How it is done: as §1, §2

B1: H4H18487P2 (antibody, V domains shown)
VH: QVQLQESGPGLVKPSETLSLTCTVSGGSISNSYWSWIRQPPGKGLEWIGYVYSRGNTKYNPSLTSRVTMSFDTSKNQFSLKLRSVTAADTAVYYCARSSSWYEDWYFDLWGRGTLVTVSS
VL: not shown
As to B1, the “Luminex MFI” value in the experiment with human LEPR Ig (D3)-MMH came to 22 MFI; in experiment [1], 62 MFI.

B2: H4H18492P2 (antibody, V domains shown)
VH: QVQLQQWGAGLFKPSETLSLTCDVYGGSFRGYYWSWIRQPPGKGLEWIGEISYSGFTNYNPSLKSRVIISIDTSKNQFSLKMSSVTAADTAVYYCARVTYGYGTFDYWGQGTLVTVSS
VL: not shown
With B2, the “Luminex MFI” value in the experiment with human LEPR Ig (D3)-MMH came out at 19 MFI; in experiment [1], 8680 MFI.

B3: H4H18482P2 (antibody, human IgG4, V domains shown)
VH: QVQLQESGPGLVKPSQTLSLTCTVSGGSISSGNYYWNWIRQQPGEGLEWIAYIYHNGVTNFNPSLKSRLTISVDTSKTQFSLKLRSVTAADTAVYYCARSGSWFENWYFDLWGRGTLVTVSS
VL: not shown
notes: human IgG4 Fc
In the case of B3, the “Luminex MFI” value in the experiment with human LEPR Ig (D3)-MMH amounted to 27 MFI.
